Reference: patent US20230416380A1 (AJOU UNIVERSITY INDUSTRY ACADEMIC COOPERATION FOUNDATION, published 2023)

Tests used:
[1] = biological target: T1, human IL-5Rα on cells (TF-1/IL-5Rα cells stably overexpressing IL-5Rα; human eosinophils) (human) (UniProt Q01344); assay: cell-based or functional assay
T1 sequence (looked up): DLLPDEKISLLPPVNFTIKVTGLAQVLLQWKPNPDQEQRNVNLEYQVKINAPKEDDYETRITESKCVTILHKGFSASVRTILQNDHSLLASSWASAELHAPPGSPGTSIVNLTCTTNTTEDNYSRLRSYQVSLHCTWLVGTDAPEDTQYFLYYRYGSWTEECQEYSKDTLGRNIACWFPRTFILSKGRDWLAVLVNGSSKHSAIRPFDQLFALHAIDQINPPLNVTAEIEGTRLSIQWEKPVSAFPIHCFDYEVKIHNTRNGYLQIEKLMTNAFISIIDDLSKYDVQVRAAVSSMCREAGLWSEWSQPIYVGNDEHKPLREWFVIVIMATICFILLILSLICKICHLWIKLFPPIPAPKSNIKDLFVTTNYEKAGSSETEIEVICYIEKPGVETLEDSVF

[2] = biological target: T2, sIL-5Rα (extracellular domain of human IL-5 receptor alpha subunit, Asp1-Asn313 of SEQ ID NO: 19, C-terminal Avi tag and 6×His tag, expressed in HEK293F) (human) (UniProt Q01344); assay: BLI (Octet QKe), antibody on AHC sensor, sIL-5Rα in solution, 1:1 model
T2 sequence: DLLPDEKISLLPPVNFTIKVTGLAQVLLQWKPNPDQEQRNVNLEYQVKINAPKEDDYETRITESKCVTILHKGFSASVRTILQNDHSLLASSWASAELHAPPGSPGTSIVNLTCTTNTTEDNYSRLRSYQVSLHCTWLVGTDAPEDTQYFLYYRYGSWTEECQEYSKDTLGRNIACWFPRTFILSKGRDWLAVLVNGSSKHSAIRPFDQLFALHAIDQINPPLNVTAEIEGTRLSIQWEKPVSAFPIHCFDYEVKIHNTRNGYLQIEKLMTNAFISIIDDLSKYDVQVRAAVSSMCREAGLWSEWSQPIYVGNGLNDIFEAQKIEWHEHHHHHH

[3] = biological target: T2, sIL-5Rα (extracellular domain of human IL-5 receptor alpha subunit, Asp1-Asn313 of SEQ ID NO: 19, C-terminal Avi tag and 6×His tag, expressed in HEK293F) (human); assay: binding competition ELISA: IL-5-mFc coated (competitor), antibody dilutions plus 100 nM IL-5Rα, anti-his-HRP
[4] = biological target: T3, human IL-5Rα on cells (TF-1/IL-5Rα cells stably overexpressing IL-5Rα; human eosinophils) (human, UniProt Q01344 21-420); assay: cell-based or functional assay
T3 sequence (looked up): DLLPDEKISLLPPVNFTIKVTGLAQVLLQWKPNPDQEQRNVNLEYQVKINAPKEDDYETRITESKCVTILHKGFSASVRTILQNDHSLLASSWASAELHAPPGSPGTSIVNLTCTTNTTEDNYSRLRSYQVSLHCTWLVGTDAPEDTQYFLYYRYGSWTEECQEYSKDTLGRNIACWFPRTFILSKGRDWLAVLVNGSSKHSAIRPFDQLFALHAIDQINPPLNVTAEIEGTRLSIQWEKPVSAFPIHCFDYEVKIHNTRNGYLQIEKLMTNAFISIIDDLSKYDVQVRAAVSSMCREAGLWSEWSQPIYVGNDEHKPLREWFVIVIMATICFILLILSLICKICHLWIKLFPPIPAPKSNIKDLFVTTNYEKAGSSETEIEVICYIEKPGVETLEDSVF

[5] = biological target: T4, sIL-5Rα (extracellular domain of human IL-5 receptor alpha subunit, Asp1-Asn313 of SEQ ID NO: 19, C-terminal … (human, UniProt Q01344 21-333)); assay: BLI (Octet QKe), comparison of KD values
T4 construct: also called sIL-5Rα antigen protein
T4 sequence: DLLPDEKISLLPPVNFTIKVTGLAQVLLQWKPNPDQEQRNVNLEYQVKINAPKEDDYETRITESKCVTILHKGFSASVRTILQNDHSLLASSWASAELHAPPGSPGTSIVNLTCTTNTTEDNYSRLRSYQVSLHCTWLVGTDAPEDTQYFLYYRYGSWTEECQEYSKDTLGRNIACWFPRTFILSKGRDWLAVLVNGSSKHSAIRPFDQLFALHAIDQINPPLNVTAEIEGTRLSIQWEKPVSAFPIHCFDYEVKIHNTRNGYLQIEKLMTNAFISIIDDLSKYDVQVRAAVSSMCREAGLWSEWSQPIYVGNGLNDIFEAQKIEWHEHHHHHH
Experimental: (§1) Specifically, 1× kinetic buffer was prepared by diluting 10× kinetic buffer (ForteBio, 18-1105) in PBS. […] Affinity was calculated with Octet Data Analysis software 11.0 in a 1:1 binding model.

[6] = biological target: T4, sIL-5Rα (extracellular domain of human …); assay: binding competition ELISA: IL-5-mFc coated (competitor), antibody dilutions plus 100 nM IL-5Rα, anti-his-HRP; 5R65 antibody; IL-5-mFc coated, 100 nM IL-5Rα, anti-his-HRP
Experimental: (§2) Prior to biological efficacy evaluation, binding competition ELISA was performed to determine whether or not anti-IL-5Rα humanized antibodies bind competitively with IL-5 to the IL-5 binding site of IL-5Rα. Specifically, IL-5 (Uniprot code: P05113, Ile20-Ser134) was fused to the G4S linker and the heavy-chain constant region (hinge-CH2-CH3) of mouse IgG2a, was subjected to transient transfection and purified (FIG. 5C). The purified IL-5-mFc proteins were immobilized at a density of 100 ng/well on a 96-well plate at room temperature for 1 hour, and blocked using 0.1% PBST containing 2% skim milk at room temperature for 1 hour. After discarding the solution and then washing the same three times with 0.1% PBST, mixtures of anti-IL-5a antibody [2-fold dilution at 2,000 nM] at various concentrations were prepared and each mixture was added in an amount of 25 μl/well to the blocked plate, 100 nM IL-5Rα was further added at 25 μl/well for 1 hour, followed by reaction at room temperature for 1 hour. […] After discarding the solution and washing three times with PBST, a TMB solution was added in an amount of 50 μl/well, color development was induced at room temperature for 2 minutes and 30 seconds, the reaction was stopped using H₂SO₄ (2N), and the absorbance at 450 nm was measured.

[7] = biological target: T4, sIL-5Rα (extracellular domain of human …); assay: BLI (Octet QKe), antibody on AHC sensor, sIL-5Rα in solution, 1:1 model
Experimental: as §1

[8] = biological target: T4, sIL-5Rα (extracellular domain of human …); assay: binding competition ELISA: IL-5-mFc coated (competitor), antibody dilutions plus 100 nM IL-5Rα, anti-his-HRP; 5R86 antibody; IL-5-mFc coated, 100 nM IL-5Rα, anti-his-HRP
Experimental: as §2

[9] = biological target: T4, sIL-5Rα (extracellular domain of human …); assay: competition ELISA: IL-5-mFc coated at 100 ng/well, antibody dilution series mixed with His-tagged sIL-5Rα, bound sIL-5Rα detected with anti-His-HRP; blocked ligand IL-5-mFc
[10] = biological target: T4, sIL-5Rα (extracellular domain of human …); assay: BLI (Octet QKe), antibody on AHC sensor, sIL-5Rα in solution, 1:1 model; remark: listed apart in the source
Experimental: as §1
(§3) Therefore, it was confirmed that the order of affinity was benralizumab>m2B7>hu2B7.

[11] = biological target: T4, sIL-5Rα (extracellular domain of human …); assay: BLI (Octet QKe), antibody on sensor, sIL-5Rα in solution, 1:1 model
Experimental: as §1, §3

B1: benralizumab analogue (benralizumab variable regions with an IgG1 constant region) (antibody, INN chains, looked up, V domains shown)
VH: EVQLVQSGAEVKKPGASVKVSCKASGYTFTSYVIHWVRQRPGQGLAWMGYINPYNDGTKYNERFKGKVTITSDRSTSTVYMELSSLRSEDTAVYLCGREGIRYYGLLGDYWGQGTLVTVSS
VL: DIQMTQSPSSLSASVGDRVTITCGTSEDIINYLNWYQQKPGKAPKLLIYHTSRLQSGVPSRFSGSGSGTDFTLTISSLQPEDFATYYCQQGYTLPYTFGQGTKVEIK
modifications: fucosylated IgG1
absolute IC50 (Abs IC50), inhibition of IL-5-dependent proliferation of TF-1/IL-5Rα cells [1]: 1.99 nM
Kd [2]: 26.8 nM
koff [2]: 0.0011 s⁻¹
kon [2]: 41100 M⁻¹ s⁻¹
IC50 [3]: 9.8 nM

B2: 5R65.7 (anti-IL-5Rα humanized antibody, affinity matured from 5R65) (antibody, V domains shown)
VH: QVQLVQSGAEVKKPGSSVKVSCKASGYTFTSYWINWVRQAPGQGLEWIGHIYPNKNENYYNHKFKDKATLTVDKSTNTAYMELSSLRSEDTAVYYCTREFYGRQYYQAMDYWGQGTTLTVSS
VL: DIQMTQSPSTLSASVGDRVTITCKASQNVGTAVAWYQQKPGKAPKLLIYWASTRHTGVPDRFSGSGSGTDFTLTISSLQPDDFATYYCQQFGRYPYTFGSGTKVEVK
abs IC50, inhibition of IL-5-dependent proliferation of TF-1/IL-5Rα cells [4]: 0.57 nM

B3: 5R65 (anti-IL-5Rα humanized antibody) (antibody, V domains shown)
VH: QVQLVQSGAEVKKPGSSVKVSCKASGYTFTSYWINWVRQAPGQGLEWIGHIYPNKNENYYNHKFKDKATLTVDKSTNTAYMELSSLRSEDTAVYYCTRDYYGRSYYYAMDYWGQGTTLTVSS
VL: DIQMTQSPSTLSASVGDRVTITCKASQNVGTAVAWYQQKPGKAPKLLIYWASTRHTGVPDRFSGSGSGTDFTLTISSLQPDDFATYYCQQFGRYPYTFGSGTKVEVK
notes: Only VH-CDR2 of hu2B7 was diversified, the light chain is that of hu2B7; also called 5R65 antibody
affinity relative to the benralizumab analogue [5]: ~2 fold
IC50 [6]: 9.5 nM

B4: 5R86 (anti-IL-5Rα humanized antibody) (antibody, IgG1, V domains shown)
VH: QVQLVQSGAEVKKPGSSVKVSCKASGYTFTSYWINWVRQAPGQGLEWIGHIYPTSSVKFYNNKFKDKATLTVDKSTNTAYMELSSLRSEDTAVYYCTRDYYGRSYYYAMDYWGQGTTLTVSS
VL: DIQMTQSPSTLSASVGDRVTITCKASQNVGTAVAWYQQKPGKAPKLLIYWASTRHTGVPDRFSGSGSGTDFTLTISSLQPDDFATYYCQQFGRYPYTFGSGTKVEVK
Kd [7]: 11.8 nM
koff [7]: 0.000325 s⁻¹
kon [7]: 27600 M⁻¹ s⁻¹
IC50 [8]: 14.1 nM

B5: 5R80 (anti-IL-5Rα humanized antibody) (antibody, IgG1, V domains shown)
VH: QVQLVQSGAEVKKPGSSVKVSCKASGYTFTSYWINWVRQAPGQGLEWIGHIYPQKTLTIYNHKFKDKATLTVDKSTNTAYMELSSLRSEDTAVYYCTRDYYGRSYYYAMDYWGQGTTLTVSS
VL: DIQMTQSPSTLSASVGDRVTITCKASQNVGTAVAWYQQKPGKAPKLLIYWASTRHTGVPDRFSGSGSGTDFTLTISSLQPDDFATYYCQQFGRYPYTFGSGTKVEVK
Kd [7]: 16.2 nM
koff [7]: 0.000365 s⁻¹
kon [7]: 22500 M⁻¹ s⁻¹
IC50 [9]: 24.2 nM

B6: 5R68 (anti-IL-5Rα humanized antibody) (antibody, IgG1, V domains shown)
VH: QVQLVQSGAEVKKPGSSVKVSCKASGYTFTSYWINWVRQAPGQGLEWIGHIYPTATIAVYNDKFKDKATLTVDKSTNTAYMELSSLRSEDTAVYYCTRDYYGRSYYYAMDYWGQGTTLTVSS
VL: DIQMTQSPSTLSASVGDRVTITCKASQNVGTAVAWYQQKPGKAPKLLIYWASTRHTGVPDRFSGSGSGTDFTLTISSLQPDDFATYYCQQFGRYPYTFGSGTKVEVK
Kd [7]: 24.1 nM
koff [7]: 0.000566 s⁻¹
kon [7]: 23500 M⁻¹ s⁻¹
IC50 [9]: 28.8 nM

B7: hu2B7 (humanized m2B7) (antibody, V domains shown)
VH: QVQLVQSGAEVKKPGSSVKVSCKASGYTFTSYWINWVRQAPGQGLEWIGHIYPSESYTNYNQKFKDKATLTVDKSTNTAYMELSSLRSEDTAVYYCTRDYYGRSYYYAMDYWGQGTTLTVSS
VL: DIQMTQSPSTLSASVGDRVTITCKASQNVGTAVAWYQQKPGKAPKLLIYWASTRHTGVPDRFSGSGSGTDFTLTISSLQPDDFATYYCQQFGRYPYTFGSGTKVEVK
notes: Expressed from plasmids encoding HC and LC and purified on protein A; also called humanized antibody hu2B7
Kd [10]: 47.8 nM
koff [10]: 0.00106 s⁻¹
kon [10]: 22200 M⁻¹ s⁻¹
IC50 [9]: 57.4 nM

B8: m2B7 (anti-IL-5Rα mouse antibody) (antibody, V domains shown)
VH: QVQLQQPGAELVRPGASVKLSCKASGYTFTSYWINWVKQRPGQGLEWIGHIYPSESYTNYNQKFKDKATLTVDKSSSTAYMQLSSPTSEDSAVYYCTRDYYGRSYYYAMDYWGQGTSVTVSS
VL: DIVMTQSHKFMSTSVGDRVSITCKASQNVGTAVAWYQQKPGQSPKLLIYWASTRHTGVPDRFTGSGSGTDFTFTISNVQSEDLADYFCQQFGRYPYTFGGGTKLEIK
notes: also called mouse antibody m2B7; mB7
Kd [11]: 40.2 nM
koff [11]: 0.000834 s⁻¹
kon [11]: 20700 M⁻¹ s⁻¹
